Data reported in the supplement of paper PMC9732359.
± gives the uncertainty stated by the source.

Test: protein stability index of a GFP-peptide fusion (yeast GPS) (PSI 1-4); higher = more stable; sorted into four equal gates, so the index is relative within each strain
Outline: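 The protein stability index of a peptide was calculated by multiplying its read frequency in each gate by that gate's number and adding the products. The peptides were tiled 17-residue stretches of yeast proteins, fused downstream of GFP on a Cherry-expressing plasmid and carried in yeast as a pooled library. Mid-log cultures in leucine-free medium were sorted into four equal gates by GFP/Cherry ratio, and each gate's plasmids were PCR-amplified and Illumina-sequenced.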

Sequence | protein stability index (doa10∆) | protein stability index (pdr5∆) | protein stability index (san1∆) | protein stability index (ubr1∆)
QDMEAAKEVYKIHQQLL [GAL11] | 3.41 ± 0.22 | 3.41 ± 0.13 | 3.5 ± 0.11 | 3.41 ± 0.12
QDMQLKIWSVKDGSNPR [RPN14] | 2.99 ± 0.097 | 2.86 ± 0.088 | 2.45 ± 0.1 | 2.62 ± 0.075
QDPIFGSVLLTLLNFVS [ECM29] | 1.63 ± 0.049 | 1.42 ± 0.052 | 1.5 ± 0.098 | 1.41 ± 0.063
QDSMSKGTGEESNDRIN [YGR119C/NUP57] | 3.33 ± 0.098 | 3.22 ± 0.15 | 3.23 ± 0.09 | 3.38 ± 0.057
QDSNVMPGSQINSPMPQ [SNF2] | 3.26 ± 0.2 | 3.12 ± 0.11 | 3.32 ± 0.12 | 3.12 ± 0.17
QDVLKGSSASSRKAHGL [POP1] | 3.27 ± 0.062 | 3.06 ± 0.064 | 3.1 ± 0.059 | 3.14 ± 0.067
QDVQRTCILHGPVAAQF [FAS1] | 2.12 ± 0.078 | 2.54 ± 0.057 | 2.02 ± 0.08 | 2.44 ± 0.044
QEEGSFEFGNMKATSNT [FAS2] | 3.28 ± 0.05 | 3.38 ± 0.07 | 3.14 ± 0.056 | 3.17 ± 0.042
QEFDSELSKEEKERLES [SMC3] | 2.97 ± 0.12 | 2.96 ± 0.16 | 2.98 ± 0.058 | 3.06 ± 0.081
QEGIEAIATTVIAHLTV [RET1] | 1.86 ± 0.057 | 1.93 ± 0.05 | 1.84 ± 0.059 | 2.01 ± 0.033
QEITTNLENHFKKSKID [SCL1] | 3.12 ± 0.089 | 3.15 ± 0.08 | 3.1 ± 0.06 | 3.22 ± 0.063
QELEKRMPMDFKGVIVK [PRE1] | 1.77 ± 0.18 |  | 2.8 ± 0.12 | 1.81 ± 0.071
QELGFCELLKLTNEDPP [SSN2] | 3 ± 0.12 | 3.12 ± 0.069 | 2.83 ± 0.1 | 3.02 ± 0.066
QERNKIHQYLFQEGVVV [RPS10B] | 1.27 ± 0.06 | 1.39 ± 0.044 | 1.45 ± 0.09 | 1.45 ± 0.037
QFCAFDSSSNTYRSRAQ [SIN4] | 2.82 ± 0.075 | 2.37 ± 0.08 | 2.81 ± 0.05 | 2.39 ± 0.057
QFIYAGKKASLNVGNVL [RPL2A] | 2.59 ± 0.092 | 2.81 ± 0.11 | 2.86 ± 0.11 | 2.8 ± 0.092
QFSLPNGDNSTTTNTDQ [SNF12] | 2.47 ± 0.047 | 2.2 ± 0.055 | 2.318 ± 0.014 | 2.31 ± 0.05
QGATNEGYQNDINTIKL [SRP72] | 3.54 ± 0.27 | 3.15 ± 0.17 | 2.46 ± 0.23 | 
QGISGSQQNIVPNSSDQ [SNF2] | 2.92 ± 0.05 | 3.11 ± 0.06 | 3.16 ± 0.041 | 2.95 ± 0.053
QGIVPDIIMNPHGFPSR [RET1] | 2.64 ± 0.05 | 2.76 ± 0.057 | 2.74 ± 0.042 | 2.56 ± 0.037

Sequence | protein stability index (doa10∆) | protein stability index (pdr5∆) | protein stability index (san1∆) | protein stability index (ubr1∆)
QGKPYISLPKGKGIKLS [RPS4A] | 3.29 ± 0.07 | 3.33 ± 0.081 | 2.84 ± 0.06 | 2.45 ± 0.073
QGSVRRLTVSARDAPTK [QCR2] | 2.93 ± 0.12 | 3.16 ± 0.076 | 2.92 ± 0.086 | 3.14 ± 0.061
QHLQFNGSSDASSLRFG [YDL088C/ASM4] | 2.24 ± 0.055 | 2.3 ± 0.049 | 1.99 ± 0.076 | 1.83 ± 0.038
QIANDPSKKRRRDFGAP [SMD1] | 2.81 ± 0.12 | 3.18 ± 0.1 | 2.86 ± 0.092 | 3.25 ± 0.073
QIKGLQWMVSLFNNHLN [SNF2] | 1.79 ± 0.12 | 1.74 ± 0.097 | 1.4 ± 0.14 | 1.36 ± 0.058
QILSTVVEDKPLLSKKE [SMB1] | 1.15 ± 0.061 | 1.19 ± 0.042 | 1.19 ± 0.12 | 1.48 ± 0.054
QILSVAIPNGIHLQRFD [RPO21] | 2.41 ± 0.1 | 2.33 ± 0.075 | 1.94 ± 0.1 | 2.77 ± 0.079
QINQGVPSAKPLILTPP [SNF11] | 2.75 ± 0.055 | 2.3 ± 0.052 | 2.8 ± 0.058 | 2.02 ± 0.032
QIPHFNNKILEKCKEIN [BRR2] | 1.28 ± 0.11 | 2.23 ± 0.12 | 1.88 ± 0.22 | 2.02 ± 0.14
QIPTPNNTVDPGFDEFQ [CSI1] | 3.17 ± 0.057 | 2.98 ± 0.045 | 3.04 ± 0.043 | 2.89 ± 0.039
QIVDIRNKRAVQLPILK [YJL039C/NUP192] | 2.2 ± 0.1 | 2.04 ± 0.053 | 1.43 ± 0.056 | 1.92 ± 0.058
QIVKYARKGLTPSQIGV [RPS13] | 3.12 ± 0.068 | 2.97 ± 0.086 | 2.47 ± 0.082 | 2.83 ± 0.086
QIVQVLKQPPFQITLSS [SSN8] | 2.12 ± 0.062 | 2.06 ± 0.074 | 1.86 ± 0.094 | 2.54 ± 0.081
QKESDAKNETNSESDSK [ITC1] | 2.94 ± 0.044 | 3.03 ± 0.046 | 3.02 ± 0.045 | 2.85 ± 0.043
QKGTIGITYRREDMPFT [RPB2] | 3.01 ± 0.1 | 2.68 ± 0.08 | 2.8 ± 0.08 | 2.9 ± 0.069
QKIVVVRAEELNISGEF [RPL16A] | 3.64 ± 0.2 | 3.06 ± 0.21 | 3.17 ± 0.16 | 3.28 ± 0.19
QKKVPDKLLDPTTVSYI [SCL1] | 2.9 ± 0.05 | 2.28 ± 0.047 | 2.4 ± 0.056 | 2.67 ± 0.044
QKLMQLVVLTDVVERLH [RGR1] | 2.29 ± 0.072 | 2.38 ± 0.049 | 2.23 ± 0.091 | 2.3 ± 0.035
QKSGRPVKSIRARLKGK [RPO21] | 2.17 ± 0.12 | 2.23 ± 0.12 | 2.34 ± 0.2 | 1.77 ± 0.24
QKSINHPPDFKRMLLSL [SNF2] | 1.66 ± 0.04 | 1.42 ± 0.039 | 1.71 ± 0.062 | 1.38 ± 0.022
